Measured values: the DeepSol protein solubility set

Test: soluble on expression in E. coli; label from the status in PepcDB or PDB records

| Sequence | soluble on expression in E. coli |
| --- | --- |
| SGDVLWDIPTPKIIEECEHLEDGIYGIFQSTFLGASQRGVGVAQGGVFHTMWHVTRGAFLVRNGKKLIPSWASVKEDLVAYGGSWKLEGRWDGEEEVQLIAAVPGKNVVNVQTKPSLFKVRNGGEIGAVALDYPSGTSGSPIVNRNGEVIGLYGNGILVGDNSFVSAISQTEVKEEGKEELQEIPTMLKKGMTTVLDFHPGAGKTRRFLPQILAECARRRLRTLVLAPTRVVLSEMKEAFHGLDVKFHTQAFSAHGSGREVIDAMCHATLTYRMLEPTRVVNWEVIIMDEAHFLDPASIAARGWAAHRARANESATILMTATPPGTSDEFPHSNGEIEDVQTDIPSEPWNTGHDWILADKRPTAWFLPSIRAANVMAASLRKAGKSVVVLNRKTFEREYPTIKQKKPDFILATDIAEMGANLCVERVLDCRTAFKPVLVDEGRKVAIKGPLRISASSAAQRRGRIGRNPNRDGDSYYYSEPTSENNAHHVCWLEASMLLDNMEVRGGMVAPLYGVEGTKTPVSPGEMRLRDDQRKVFRELVRNCDLPVWLSWQVAKAGLKTNDRKWCFEGPEEHEILNDSGETVKCRAPGGAKKPLRPRWCDERVSSDQSALSEFIKFAEGRR | soluble |
| SGGRHIQAIRCWTIWKYMKDYFPISLVKTAELDPSRNYIAGFHPHGVLAVGAFANLCTESTGFSSIFPGIRPHLMMLTLWFRAPFFRDYIMSAGLVTSEKESAAHILNRKGGGNLLGIIVGGAQEALDARPGSFTLLLRNRKGFVRLALTHGAPLVPIFSFGENDLFDQIPNSSGSWLRYIQNRLQKIMGISLPLFHGRGVFQYSFGLIPYRRPITTVVGKPIEVQKTLHPSEEEVNQLHQRYIKELCNLFEAHKLKFNIPADQHLEFC | soluble |
| SGLVPRGSHMRLRPLGIEGVWEITPEQRADPRGVFLDWYHVDRFAEAIGRPLRLAQANLSVSVRGVVRGIHFVDVPPGQAKYVTCVRGAVFDVVVDLRVGSPTYGCWEGTRLDDVSRRAVYLSEGIGHGFCAISDEATLCYLSSGTYDPATEHGVHPLDPELAIDWPTGTPLLSPRDQDALLLAEARDAGLLPTYATCQAVTVPSPAPGSVGDPGP | soluble |
| SGNTSSERTGMGQEKANRRDSRGTKEGDRPKILMDSPEDADIFHGEDLKAPLEKEEFIEWRPDLEGSEKTDTLDRPTVFRWTGAGKEVYISGSFNNWTNKIPLIRSQNNFVAIVDLPEGEHQYKFYVDGLWTHDPTEPVVTNQLGTVNNIIQVKKTDFEVFDALMVDSQKCSDMSDLSSSPPGPYHQDAYTPKQEEKFKSPPILPPHLLQVILNKDTGISCDPALLPEPNHVMLNHLYALSIKDGVMVLSATHRYKKKYVTTLLYKPI | not soluble |
| SGRHERDAFDTLFDHAPDKLNVVKKTLITFVNKHLNKLNLEVTELETQFADGVYLVLLMGLLEGYFVPLHSFFLTPDSFEQKVLNVSFAFELMQDGGLEKPKPRPEDIVNCDLKSTLRVLYNLFTKYRNVE | soluble |
| SGSQAGSFRKASPQTPNIDENEKRIKRLEKLKRDLQNIKNERGILQGILAKYKDLNDRTNFETFMLEMQHNQMMTDLKRMSQDISEALYKCQHLTKENQLYCCRNCHLLIESNLIQHKVRMLWKENRQLLRKQIALEECNIKTKILCKEGSQKIKDEYSRQAAGKQIIVVPGSKEEAAMSNPCA | soluble |
| SKERRAPQPVVARCKLVLVGDVQCGKTAMLQVLAKDCYPETYVPTVFENYTACLETEEQRVELSLWDTSGSPYYDNVRPLCYSDSDAVLLCFDISRPETVDSALKKWRTEILDYCPSTRVLLIGCKTDLRTDLSTLMELSHQKQAPISYEQGCAIAKQLGAEIYLEGSAFTSEKSIHSIFRTASMLCLNKPSPLPQKSPVRSLSKRLLHLPSRSELISSTFKKEKAKSCSIM | soluble |
| SKGLSFSSVYSVGNAAQTGVEDVLEHLDETFDAATSSHTLLLYIETISKPKRFLKHARSLVQKGCRIAAIKSGTSSDGGRAAASHTGAMLNSDVAVDALFRKAGVVRCYSREELATVGAVLQHPVLTGKNMAVITHAGGPAVMLTDALSNGGMSVPPIPEEKTRTLLSELFDGSSVANPIDILATGTAEQLSKVIDTCEKDLDTIDGMVVIFGSPGLFDVSDAYDVIREQQKKCKKPIYAVLPSVINAKEGMERFIAQGGILFEEEVALARAICKVYQTPKPEMTEESELPKAAEIRRLLAGKSGMLGTGDML | not soluble |
| SKLLENSSFEAINSQLTVETGDAHIIGRIESYSCKMAGDDKHMFKQFCQEGQPHVLEALSPPQTSGLSPSRLSKSQGGEEEGPLSDKCSRKTLFYLIATLNESFRPDYDFSTARSHEFSREPSLSWVVNAVNCSLFSAVREDFKDLKPQLWNAVDEEICLAECDIYSYNPDLDSDPFGEDGSLWSFNYFFYNKRLKRIVFFSCRSISGSTYTPSEAGNELDMELGEEEVEEESRSRGSGAEETSTMEEDRVPVICI | soluble |
| SKRKARRGAGMPDYETVALVLQGGGALGAYQAGVYEGLHAAGIRPNWLAGISIGGINAAIIAGAPVDERVGRLRGFWEAICRPTGFVGLPWGDAWAALFANAPFGFGSNQSNGQLAAFNALTRGQPGFFEPRFPPPYLVQGGGAAATSFYDTTPLLQTLRDYVDFDLLNRGDVRVSLGAVNVRTGNFAYFDSRETVIRPEHVMASGALPPGFPAIEIDGEFYWDGGLVSNTPLTKVLAVHPMRDTLAFQVDLWPARGPLPTSLEEVAERQKDIQYSSRTRIVTDTFRRQLKLRRSLQRVLDRLPPQVRSSRELAQIRREACTPLVNVVNLIYEANQFERHSKDYEFNTESMREHWRFGLADIERTLAQPGV | not soluble |
| SKSNLEYSFSNILKNIFSPIREKESVKKVIYYSIPIALTTASYRLVNDLDGIFILSMLGAYDNGVYGY | not soluble |
| SKVWKYFGFDTNAEGCILQWKKIYCRICMAQIAYSGNTSNLSYHLEKNHPEEFCEFVKSN | soluble |
| SLALSPGNLQKTAAGPDGQPQLAEKAPEKAQVDVPAAGDTAGLQPQSGRSGANINRATLPDGNVVSVYSPRPRDSDGPVLMSGQTYGQDPRMATRPNEELLEETAFGQLPVVGADGLRPMEQYARPWSGARGTRVAIVVGGLGLSQTGSQKAIRDLPPEVTLGFAASGNSLQRWMQDARREGHEILLQIPLEPFGYPGTNPGPDTLLAGDPAKVNIDRLHRSMAKITNYTGVMNYLGGRFLAEQSALEPVMRDIGKRGLLFLDDGSSAQSLSGGIAKAISAPQGFADVLLDGEVTEASILRKLDDLERIARRNGQAIGVASAFDESIAAISKWSREAGGRGIEIVGVSALVSGQAGQ | soluble |
| SLAWHQRKHTQATPLRDIAADYTLQDFKLVALDTQTGKESLTLLGQQMQHNQTDSSAEVTAPLFMIPDQAGQHWTLQAQTGWINKDGTLLRLRHDVKGDSPTDLGQLPTTFRTQSLDIYPNHHLAKTTDAVTITHQGIIQTGVGFEVNTKTQQYKFNSKVNTRYEPSAAR | soluble |
| SLDITFIDETEKVPTEEIKEIENLLQFAAGFLEIAEDTEMSVTFTDNAGIQMINRDYRGKDMPTDVISFALEDEGEDELPIIFDDEELAELPRNLGDLIISTERAAEQAVEYGHTLEREMGFLAVHGFLHLNGYDHMEPEDEKEMFGLQKEILDAYGLKR | soluble |
| SLDMIRIDSQTNSSHLKDEFQTLNSVTPRLQAEDCSIACLPRNHDKNRFMDMLPPDRCLPFLITIDGESSNYINAALMDSYRQPAAFIVTQYPLPNTVKDFWRLVYDYGCTSIVMLNEVDLSQGCPQYWPEEGMLRYGPIQVECMSCSMDCDVINRIFRICNLTRPQEGYLMVQQFQYLGWASHREVPGSKRSFLKLILQVEKWQEECEEGEGRTIIHCLNGGGRSGMFCAIGIVVEMVKRQNVVDVFHAVKTLRNSKPNMVEAPEQYRFCYDVALEYLESS | not soluble |
| SLEEYHKWYYGNLVWTKTTYMGINCWKSVSDMWNYQEILSELQPSLVIEFGTRYGGSAVYFANIMRQIGQPFKVLTVDNSHKALDPRARREPDVLFVESSSTDPAIAEQIQRLKNEYPGKIFAILDSDHSMNHVLAEMKLLRPLLSAGDYLVVEDSNINGHPVLPGFGPGPYEAIEAYEDEFPNDYKHDAERENKFGWTSAPNGFLIRN | soluble |
| SLGGEVSGKGPAVAAREARDPLPDAGASPAPSRCCRRRSSVAFFAVCDGHGGREAAQFAREHFWGFIKKQKGFTSSEPAKVCAAIRKGFLACHLAMWKKLAEWPKTMTGLPSTSGTTASVVIIRGMKMYVAHVGDSGVVLGIQDDTKDDFVRAVEVTQDHKPELPKERERIEGLGGSVMNKSGVNRVVWKRPRLTHNGPVRRSTVIDQIPFLAVARALGDLWSYDFFSGEFVVSPEPDTSVHTLDPQKHKYIILGSDGLWNMIPPQDAISMCQDQEEKKYLMGEHGQSCAKMLVNRALGRWRQRMLRADNTSAIVICISPEVDNQGNFTNEDELYLNLTDGPSYNSQETCVMTPSPCSTPPVKSLEEDPWPRVNSKDHIPALVRSNAFSENFLEVSAEIARENVQGVVIPSKDPEPLEEN | soluble |
| SLGSQSSKAPRGDVTAEEAAGASPAKANGQENGHVKSNGDLSPKGEGESPPVNGTDEAAGATGDAIEPAPPSQGAEAKGEVPPKETPKKKKKFSFKKPFKMSGMSFKRNRKEGGGDSSASSPTEEEQEQGEIGACSDEGTAQEGKAAATPESQEPQAKGAEASAASEEEAGPQATEPSTPSGPESGPTPASAEQNE | soluble |
| SLHNGGLMAGWHLDTKMAQDIVARTMRIIDTNINVMDARGRIIGSGDRERIGELHEGALLVLSQGRVVDIDDAVARHLHGVRQGINLPLRLEGEIVGVIGLTGEPENLRKYGELVCMTAEMMLEQSRLMHLLAQDSRLREELVMNLIQAEENTPALTEWAQRLGIDLNQPRVVAIVEVDSGQLGVDSAMAELQQLQNALTTPERNNLVAIVSLTEMVVLKPALNSFGRWDAEDHRKRVEQLITRMKEYGQLRFRVSLGNYFTGPGSIARSYRTAKTTMVVGKQRMPESRCYFYQDLMLPVLLDSLRGDWQANELARPLARLKTMDNNGLLRRTLAAWFRHNVQPLATSKALFIHRNTLEYRLNRISELTGLDLGNFDDRLLLYVALQLDEER | soluble |
| SLIDNPHAQDYWPNRGQMDVQGLAVKYTEAGRAVLSDISFSVEGGLSMGLLGRTGSGKSTLLSALLRLASTDGEISIDGISWNSVPLEKWRKAFGVVPQKVFILTGTFRMNLDPHGRYSDEELWRVADQVGLKSVIEQFPDRLDFQLENGGSVLSHGHKQLMCLARSILSKARILLLDEPSAYLDTITLQVLRKTLKHAFSDCTVILSEAKVEPLLECDSFLVIEGSSVKSYDSIQKLLNEMSDLKQAVSAAD | not soluble |
| SLKCYTCKEPMTSASCRTITRCKPEDTACMTTLVTVEAEYPFNQSPVVTRSCSSSCVATDPDSIGAAHLIFCCFRDLCNSEL | soluble |
| SLKIFTSKKGQLSQLKQQKFKLEKDIQRLFEENLTLLSGYIFIRSEFSIKNSRIDTLAFDPETQAFVIIEYKRQQNSSVVDQGISYLNLMLEYKADFIVEYNEKQKVPLKRNDVDWSQSKVIFVSPAFNDFQIQATNFKDLPIELWEVNRFDNDIITLNIINKSKSAPNIKAVSNEKREEFSILKEIKVYQESDHLADKTDFIQELYEDFKQGILNLDPDIEINTRKLYIAFKKDRNIADIRIQQKNLKIWINLPYGELDDPKNLAKNVSNTGHWGNGDYEITIESTQYLEYIMSLIKQAIKD | soluble |
